In patent publication US10800847:
Each block holds one substance with its values, some of them ahead of it.

How the values were obtained:
HLA-B*1516 (B63) (human) = assay: iBead MFI against regular-bead MFI, IVIg diluted 1:8
[1] = molecular target: HLA-Cw*0202 (Cw2) (human); assay: Luminex, iBeads (#6), 1:8
[2] = molecular target: HLA-A*4301 (A43) single antigen on beads (human); assay: Luminex single-antigen regular beads (#7), IVIg 1:8
[3] = molecular target: HLA-A*6602 (A66) single antigen on beads (human); assay: Luminex, iBead vs regular bead, IVIg 1:8
[4] = molecular target: HLA-A*7401 (A74) single antigen on Luminex beads (human); assay: Luminex single antigen bead assay, iBeads (#6), IVIg 1:8
HLA-B*1501 (B62) (human) = assay: Luminex regular beads (#7), IVIg diluted 1:8
[5] = molecular target: HLA-A*7401 (A74) single antigen on Luminex beads (human); assay: Luminex single antigen bead assay, iBeads vs regular beads, IVIg 1:8
[6] = molecular target: HLA-A*6802 (A68) single antigen on Luminex beads (human); assay: as above
[7] = molecular target: HLA-Cw*0401 (Cw4) (human); assay: Luminex, iBeads (#6), 1:8
[8] = molecular target: HLA-A*4301 (A43) single antigen on beads (human); assay: Luminex, iBead vs regular bead, IVIg 1:8
[9] = molecular target: HLA-A*6802 (A68) single antigen on Luminex beads (human); assay: Luminex single antigen bead assay, regular beads (#7), IVIg 1:8
[10] = molecular target: HLA-Cw*0102 (Cw1) (human); assay: Luminex, iBeads (#6), 1:8
[11] = molecular target: HLA-A*3201 (A32) single antigen on beads (human); assay: Luminex, iBead vs regular bead, IVIg 1:8
[12] = molecular target: HLA-A*3002 (A30) single antigen on beads (human); assay: Luminex, iBead vs regular bead, IVIg 1:8
[13] = molecular target: HLA-A*3401 (A34) single antigen on beads (human); assay: Luminex, iBead vs regular bead, IVIg 1:4
[14] = molecular target: HLA-A*3301 (A33) single antigen on beads (human); assay: Luminex, iBead vs regular bead, IVIg 1:4
[15] = molecular target: HLA-A*2902 (A29) single antigen on beads (human); assay: Luminex, iBead vs regular bead, IVIg 1:4
[16] = molecular target: HLA-A*6602 (A66) single antigen on beads (human); assay: Luminex, iBead vs regular bead, IVIg 1:4
[17] = molecular target: HLA-A*3201 (A32) single antigen on beads (human); assay: Luminex, iBead vs regular bead, IVIg 1:4
[18] = molecular target: HLA-A*3002 (A30) single antigen on beads (human); assay: Luminex, iBead vs regular bead, IVIg 1:4
[19] = molecular target: HLA-A*6601 (A66) single antigen on beads (human); assay: Luminex, iBead vs regular bead, IVIg 1:4
[20] = molecular target: HLA-Cw*0102 (Cw1) (human); assay: Luminex, regular beads (#7), 1:4
HLA-B*8201 (B82) (human) = assay: Luminex, regular beads (#7), 1:4
[21] = molecular target: HLA-Cw*0302 (Cw10) (human); assay: Luminex, regular beads (#7), 1:4
[22] = molecular target: HLA-Cw*1601 (Cw16) (human); assay: Luminex, regular beads (#7), 1:4
[23] = molecular target: HLA-B*4402 (B44) single antigen on Luminex beads (human); assay: Luminex single antigen, iBeads (#6), IVIg 1:8
[24] = molecular target: HLA-B*4201 (B42) single antigen on Luminex beads (human); assay: Luminex single antigen, iBeads (#6), IVIg 1:8
[25] = molecular target: HLA-B*2708 (B27) single antigen on Luminex beads (human); assay: Luminex single antigen, iBeads (#6), IVIg 1:8
[26] = molecular target: HLA-B*4501 (B45) single antigen on Luminex beads (human); assay: Luminex single antigen, iBeads (#6), IVIg 1:8
[27] = molecular target: HLA-B*3701 (B37) single antigen on Luminex beads (human); assay: Luminex single antigen, iBeads (#6), IVIg 1:8
[28] = molecular target: HLA-B*4001 (B60) single antigen on Luminex beads (human); assay: Luminex single antigen, iBeads (#6), IVIg 1:8
[29] = molecular target: HLA-B*4701 (B47) single antigen on Luminex beads (human); assay: Luminex single antigen, iBeads (#6), IVIg 1:8
[30] = molecular target: HLA-B*4403 (B44) single antigen on Luminex beads (human); assay: Luminex single antigen, iBeads (#6), IVIg 1:8
[31] = molecular target: HLA-B*3501 (B35) single antigen on Luminex beads (human); assay: Luminex single antigen, iBeads (#6), IVIg 1:8
[32] = molecular target: HLA-B*4101 (B41) single antigen on Luminex beads (human); assay: Luminex single antigen, iBeads (#6), IVIg 1:8
[33] = molecular target: HLA-B*4006 (B61) single antigen on Luminex beads (human); assay: Luminex single antigen, iBeads (#6), IVIg 1:8
[34] = molecular target: HLA-B*3801 (B38) single antigen on Luminex beads (human); assay: Luminex single antigen, iBeads (#6), IVIg 1:8
[35] = molecular target: HLA-B*3901 (B39) single antigen on Luminex beads (human); assay: Luminex single antigen, iBeads (#6), IVIg 1:8
[36] = molecular target: HLA-B*2705 (B27) single antigen on Luminex beads (human); assay: Luminex single antigen, iBeads (#6), IVIg 1:8
[37] = molecular target: HLA-B*4002 (B61) single antigen on Luminex beads (human); assay: Luminex single antigen, iBeads (#6), IVIg 1:8
[38] = molecular target: HLA-B*4601 (B46) single antigen on Luminex beads (human); assay: Luminex single antigen, iBeads (#6), IVIg 1:8
[39] = molecular target: HLA-A*0301 (A3) on single antigen beads (human) (UniProt P04439); assay: Luminex single antigen beads, regular beads (#7), 1:8
[40] = molecular target: Albumin on negative control beads (serum albumin, HSA/BSA) (human or bovine); assay: as above

Difference % (iBead vs regular bead) (HLA-B*1516 (B63) (human)): -7%
MFI [1]: 8100 MFI
MFI [2]: 1910 MFI
Difference % (iBead MFI vs regular bead MFI) [3]: 83%
Substance: IVIg GamaSTAN S/D (Talecris Biotherapeutics, USA) (antibody)

Difference % (iBead vs regular bead) (HLA-B*1516 (B63) (human)): -36%
MFI [4]: 3900 MFI
MFI (HLA-B*1501 (B62) (human)): 0 MFI
Difference % (iBead MFI against regular bead MFI) [5]: 486%
Difference % (iBead MFI against regular bead MFI) [6]: 228%
MFI [7]: 3730 MFI
Difference % (iBead MFI vs regular bead MFI) [3]: 372%
Difference % (iBead MFI vs regular bead MFI) [8]: 186%
Substance: IVIg Gamunex-C Lot NKLG1 (antibody)

MFI [4]: 515 MFI
MFI (HLA-B*1501 (B62) (human)): 15 MFI
Difference % (iBead MFI against regular bead MFI) [6]: 46%
MFI [9]: 1330 MFI
MFI [10]: 1060 MFI
MFI [2]: 1170 MFI
Difference % (iBead MFI vs regular bead MFI) [11]: 116%
Difference % (iBead MFI vs regular bead MFI) [12]: 151%
Substance: IVIg Gamunex-C Lot NKLK1 (antibody)

Difference % (iBead MFI against regular bead MFI) [5]: -59%
MFI [9]: 1750 MFI
MFI [1]: 1840 MFI
MFI [10]: 1780 MFI
MFI [7]: 2010 MFI
Difference % (iBead MFI vs regular bead MFI) [11]: -30%
Difference % (iBead MFI vs regular bead MFI) [12]: -31%
Difference % (iBead MFI vs regular bead MFI) [8]: -11%
Substance: IVIg Octagam (Octapharma, Lachen, Switzerland) (antibody)

Difference % (iBead MFI vs regular bead MFI) [13]: 80%
Difference % (iBead MFI vs regular bead MFI) [14]: 270%
Difference % (iBead MFI vs regular bead MFI) [15]: 366%
Difference % (iBead MFI vs regular bead MFI) [16]: 111%
Difference % (iBead MFI vs regular bead MFI) [17]: 202%
Difference % (iBead MFI vs regular bead MFI) [18]: 202%
Difference % (iBead MFI vs regular bead MFI) [19]: 742%
MFI [20]: 998 MFI
MFI (HLA-B*8201 (B82) (human)): 639 MFI
MFI [21]: 1024 MFI
MFI [22]: 973 MFI
Substance: IVIg Sandoglobulin (Novartis, Basel, Switzerland) (antibody)

MFI [23]: 702 MFI
MFI [24]: 0 MFI
MFI [25]: 0 MFI
MFI [26]: 308 MFI
MFI [27]: 0 MFI
MFI [28]: 4 MFI
MFI [29]: 955 MFI
MFI [30]: 698 MFI
MFI [31]: 0 MFI
MFI [32]: 0 MFI
MFI [33]: 167 MFI
MFI [34]: 0 MFI
MFI [35]: 0 MFI
MFI [36]: 0 MFI
MFI [37]: 0 MFI
MFI [38]: 526 MFI
MFI [39]: 515 MFI
MFI [40]: 2340 MFI
Substance: Octagam (IVIg, Octapharma, Lachen, Switzerland) (antibody)
